Patent publication US20240132548A1 (Janssen / Centocor, published 2024)
Residue numbers refer to the chain shown, from its start.

How the values were obtained:
Experiment in all cases: BLI (Octet), biotinylated mAb on streptavidin sensors, culture supernatant
[1] = molecular target: T1, RSV180910 (RSV FB signal peptide, C-tag) (respiratory syncytial virus, subgroup B …, UniProt O36634 26-109; P13843 137-540)
T1 construct: Same mature protein as RSV180916, expressed with the RSV B signal peptide; measured in culture supernatant, furin co-transfected
T1 chain 1: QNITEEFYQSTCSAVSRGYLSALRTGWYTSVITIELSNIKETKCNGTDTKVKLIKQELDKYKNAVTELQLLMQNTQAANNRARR
T1 chain 2: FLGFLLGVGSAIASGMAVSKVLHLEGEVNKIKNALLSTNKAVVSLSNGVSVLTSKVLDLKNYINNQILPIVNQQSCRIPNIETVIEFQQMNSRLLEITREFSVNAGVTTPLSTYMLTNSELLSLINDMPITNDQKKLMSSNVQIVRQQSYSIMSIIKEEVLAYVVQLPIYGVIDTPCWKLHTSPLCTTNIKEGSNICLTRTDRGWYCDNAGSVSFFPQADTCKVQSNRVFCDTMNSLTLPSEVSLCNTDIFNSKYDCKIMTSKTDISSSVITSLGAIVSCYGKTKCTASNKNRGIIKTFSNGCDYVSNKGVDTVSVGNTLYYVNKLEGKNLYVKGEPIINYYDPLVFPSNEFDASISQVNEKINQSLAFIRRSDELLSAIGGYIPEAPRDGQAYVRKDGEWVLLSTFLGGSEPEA
Description: (§1) Quantitative Octet (BioLayer Interferometry) was used for measuring protein concentration in the supernatants at day of harvest and after 7 or 30 days storage at 4° C. CR9501 (an antibody specifically recognizing pre-fusion RSV F protein, which comprises the variable regions of the antibodies 58C5 as described in WO2012/006596) and CR9506 (recognizing pre-fusion and post-fusion RSV F protein and comprising a heavy chain variable region comprising SEQ ID NO: 21, and a light chain variable region comprising SEQ ID NO: 22) were biotinylated by standard protocols and immobilized on Streptavidin biosensors (ForteBio, Portsmouth, UK).
(§2) Afterwards, the coated biosensors were blocked in mock cell culture supernatant. A quantitative experiment was performed as follows: temperature 30° C., shaking speed 1000 rpm, time of the assay 300 sec. The concentration of the protein was calculated using a standard curve. The standard curve was prepared for each coated antibody CR9501 and CR9506 using the pre-fusion RSV FA protein (SEQ ID NO: 19; described previously in WO17174568) diluted in mock medium. […] The data analysis was done using the ForteBio Data Analysis 10.0.1.6 software (ForteBio).

[2] = molecular target: T2, RSV181181 (I152M + K226M + D486N + S215P + P101Q + D489Y) (respiratory syncytial virus, subgroup B …, UniProt O36634 26-109; P13843 137-540)
T2 chain 1: T1 chain 1
T2 chain 2: T1 chain 2 with I67L, D353Y
Description: as §1, §2

[3] = molecular target: T3, RSV190417 (tag-free; I152M + K226M + D486N + S215P + L203I + P101Q + D489Y) (respiratory syncytial virus, subgroup B …, UniProt O36634 26-109; P13843 137-540)
T3 construct: Measured in culture supernatant, furin co-transfected
T3 chain 1: T1 chain 1
T3 chain 2: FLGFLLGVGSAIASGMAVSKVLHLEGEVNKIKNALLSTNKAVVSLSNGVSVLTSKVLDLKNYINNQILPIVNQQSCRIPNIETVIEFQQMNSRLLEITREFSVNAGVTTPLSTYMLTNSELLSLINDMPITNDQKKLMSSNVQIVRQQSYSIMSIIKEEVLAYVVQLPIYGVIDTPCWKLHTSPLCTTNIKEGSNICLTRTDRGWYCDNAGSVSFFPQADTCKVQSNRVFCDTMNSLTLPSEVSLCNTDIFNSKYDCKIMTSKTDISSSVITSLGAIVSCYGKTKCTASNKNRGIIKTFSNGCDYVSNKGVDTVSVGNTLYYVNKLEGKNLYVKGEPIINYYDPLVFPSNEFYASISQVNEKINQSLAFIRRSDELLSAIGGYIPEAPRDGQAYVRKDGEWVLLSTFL
Description: as §1, §2

[4] = molecular target: T4, RSV181182 (I152M + K226M + D486N + S215P + P101Q + D489Y + T357R + N371Y) (respiratory syncytial virus, subgroup B …, UniProt O36634 26-109; P13843 137-540)
T4 chain 1: T1 chain 1
T4 chain 2: T1 chain 2 with I67L, T221R, N235Y, D353Y
Description: as §1, §2

Measured: binding result

B1: CR9506 (antibody, human IgG1, kappa, V domains shown)
VH: EVQLVQSGAEVKKPGSSVKVSCKASGGTFSRSLITWVRQAPGQGLEWMGEISLVFGSAKNAQKFQGRVTITADESTSTAHMEMISLKHEDTAVYYCAAHQYGSGTHNNFWDESELRFDLWGQGTLVTVSS
VL: DIVMTQSPSSLSASVGDRVTIACRASQSIGTYLNWYQQKPGKAPKLLIYAASSLQSGVPSRFSGSGSGTHFTLAISSLQAEDFATYSCQQSYTIPYTFGQGTKLEIKR
notes: Biotinylated for Octet; coated and also used HRP-labelled as detection antibody in the ELISA
binds: all assays above
